B1: DTS with 5 repeats of UAS: DNA with GFP cassette and DTS of 5 UAS repeats (nucleic acid)
DNA: CGGAGGACTGTCCTCCGTGAGTCCTAGCGGAGGACTGTCCTCCGTCTTCACAGGCGGAGGACTGTCCTCCGTAGGGTTCCTCGGAGGACTGTCCTCCGACACTAGAGTCGGAGGACTGTCCTCCG
modifications: DNA nuclear targeting sequence within DNA carrying a GFP cassette, further chemistry not given here
notes: DNA with GFP cassette and DTS of 5 UAS repeats
B2: DTS with 10 repeats of UAS: DNA with GFP cassette and DTS of 10 UAS repeats (nucleic acid)
DNA: CGGAGGACTGTCCTCCGTGAGTCCTAGCGGAGGACTGTCCTCCGTCTTCACAGGCGGAGGACTGTCCTCCGTAGGGTTCCTCGGAGGACTGTCCTCCGACACTAGAGTCGGAGGACTGTCCTCCGGATAGTATCACGGAGGACTGTCCTCCGAATGGACTAACGGAGGACTGTCCTCCGAGCAAACGAACGGAGGACTGTCCTCCGTACACCGATCCGGAGGACTGTCCTCCGGCGCTCGGCACGGAGGACTGTCCTCCG
B3: DTS with 7 repeats of UAS: DNA with GFP cassette and DTS of 7 UAS repeats (nucleic acid)
DNA: CGGAGGACTGTCCTCCGTGAGTCCTAGCGGAGGACTGTCCTCCGTCTTCACAGGCGGAGGACTGTCCTCCGTAGGGTTCCTCGGAGGACTGTCCTCCGACACTAGAGTCGGAGGACTGTCCTCCGGATAGTATCACGGAGGACTGTCCTCCGAGCAAACGAACGGAGGACTGTCCTCCG
B4: DTS with 4 repeats of UAS: DNA with GFP cassette and DTS of 4 UAS repeats (nucleic acid)
DNA: CGGAGGACTGTCCTCCGTGAGTCCTAGCGGAGGACTGTCCTCCGTCTTCACAGGCGGAGGACTGTCCTCCGTAGGGTTCCTCGGAGGACTGTCCTCCG
modifications: DNA nuclear targeting sequence within DNA carrying a GFP cassette, further chemistry not given here
notes: DNA with GFP cassette and DTS of 4 UAS repeats
B5: DTS with 3 repeats of UAS: DNA with GFP cassette and DTS of 3 UAS repeats (nucleic acid)
DNA: CGGAGGACTGTCCTCCGTGAGTCCTAGCGGAGGACTGTCCTCCGTCTTCACAGGCGGAGGACTGTCCTCCG
modifications: DNA nuclear targeting sequence within DNA carrying a GFP cassette, further chemistry not given here
notes: DNA with GFP cassette and DTS of 3 UAS repeats
B6: DTS with 2 repeats of TetO: DNA with GFP cassette and DTS of 2 TetO repeats (nucleic acid)
DNA: CTCGAGTTTACTCCCTATCAGTGATAGAGAACGTATGTCGAGTTTACTCCCTATCAGTGATAGAGAACGATGTCGAGTTTAC
modifications: DNA nuclear targeting sequence within DNA carrying a GFP cassette, further chemistry not given here
notes: DNA with GFP cassette and DTS of 2 TetO repeats
B7: DTS with 5 repeats of TetO: DNA with GFP cassette and DTS of 5 TetO repeats (nucleic acid)
DNA: CTCGAGTTTACTCCCTATCAGTGATAGAGAACGTATGTCGAGTTTACTCCCTATCAGTGATAGAGAACGATGTCGAGTTTACTCCCTATCAGTGATAGAGAACGTATGTCGAGTTTACTCCCTATCAGTGATAGAGAACGTATGTCGAGTTTACTCCCTATCAGTGATAGAGAACGTATGTCGAGTTTA
B8: DTS with 4 repeats of TetO: DNA with GFP cassette and DTS of 4 TetO repeats (nucleic acid)
DNA: CTCGAGTTTACTCCCTATCAGTGATAGAGAACGTATGTCGAGTTTACTCCCTATCAGTGATAGAGAACGATGTCGAGTTTACTCCCTATCAGTGATAGAGAACGTATGTCGAGTTTACTCCCTATCAGTGATAGAGAACGTATGTCGAGTTTAC
B9: DTS with 7 repeats of TetO: DNA with GFP cassette and DTS of 7 TetO repeats (nucleic acid)
DNA: CTCGAGTTTACTCCCTATCAGTGATAGAGAACGTATGTCGAGTTTACTCCCTATCAGTGATAGAGAACGATGTCGAGTTTACTCCCTATCAGTGATAGAGAACGTATGTCGAGTTTACTCCCTATCAGTGATAGAGAACGTATGTCGAGTTTACTCCCTATCAGTGATAGAGAACGTATGTCGAGTTTATCCCTATCAGTGATAGAGAACGTATGTCGAGTTTACTCCCTATCAGTGATAGAGAACGTATGTCGAGGTAGGCGTGTACGGTGGGAGGCCTATATAAGCAGAGCTCGTTTAGTGAACCGTCAGATCGCCTGGAGAATTCA
B10: DTS with 6 repeats of TetO: DNA with GFP cassette and DTS of 6 TetO repeats (nucleic acid)
DNA: CTCGAGTTTACTCCCTATCAGTGATAGAGAACGTATGTCGAGTTTACTCCCTATCAGTGATAGAGAACGATGTCGAGTTTACTCCCTATCAGTGATAGAGAACGTATGTCGAGTTTACTCCCTATCAGTGATAGAGAACGTATGTCGAGTTTACTCCCTATCAGTGATAGAGAACGTATGTCGAGTTTATCCCTATCAGTGATAGAGAACGTATGTCGAGTTTAC
B11: DTS with 3 repeats of TetO: DNA with GFP cassette and DTS of 3 TetO repeats (nucleic acid)
DNA: CTCGAGTTTACTCCCTATCAGTGATAGAGAACGTATGTCGAGTTTACTCCCTATCAGTGATAGAGAACGATGTCGAGTTTACTCCCTATCAGTGATAGAGAACGTATGTCGAGTTTAC
modifications: DNA nuclear targeting sequence within DNA carrying a GFP cassette, further chemistry not given here
notes: DNA with GFP cassette and DTS of 3 TetO repeats

What follows are molecules tested on growth-arrested HepG2 cells (assay: Number of TFBS repeats in the DTS (TetO, UAS), co-transfection with TetR or Gal4 mRNA in growth-arrested HepG2 cells; GFP intensity). Settings: growth-arrested HepG2 cells, 12 h.
Format: cell-based
Experimental: Co-transfection of DNA and mRNA into HepG2 cells. HepG2 cells were purchased from ATCC and grown in complete media (EMEM+10% fetal bovine serum, ATCC). For co-transfection experiments, cells were seeded at confluence onto collagen coated 384-well plates and cultured for 48 hours in complete media followed by 48 hours in complete media supplemented with […] aphidicolin to prevent cell division. After the outgrowth period, cells were transfected using Lipofectamine3000 (Invitrogen) transfection reagent according to the manufacturer's instructions. RNA and DNA were independently complexed with Lipofectamine3000 in Opti-MEM I (Gibco) for 15 minutes. RNA and DNA complexes were then mixed, followed by 1:10 dilution into complete media supplemented with 0.75 μM aphidicolin. Media was aspirated from the plated HepG2 cells and replaced with the transfection mix. DNA was transfected from 17.5 ng to 4.38 ng per well. mRNA was transfected from 70 ng to 0.07 ng per well. Cells were live-imaged using a 4× objective with a GFP filter set and brightfield at 3-hour intervals for 72 hours using a Cytation5 automated microscope (Agilent) attached to a BioSpa8 automated incubator (Agilent). Gen5IPrime (Agilent) image analysis software was used to quantify the number of GFP cells and GFP Intensity per well.
In this study, DNAs were engineered to comprise DTSs having different numbers of TFBS repeats for TetR or Gal4, and the impact of multiple sequences assessed in vitro by co-transfection of mRNA encoding TetR or Gal4 NTF. Growth-arrested HepG2 cells were co-transfected with mRNA encoding the NTF protein along with DNA comprising a cognate DTS and a GFP expression cassette. Each NTF mRNA was paired with a cognate DNA in the co-transfection, where the cognate DNA comprised a DTS with varying numbers of cognate TFBS repeats. For example, the TetR mRNA was paired with DNAs comprising DTSs with 2, 3, 4, 5, 6, or 7 repeats of a TetR TFBS (e.g., TetO). Twenty-four hours after transfection, GFP expression was assessed by measuring GFP fluorescence intensity.
The increase in gene expression appeared to increase with the number of TetO repeats in the DTS, with 7 repeats producing an increase in GFP expression greater than 10-fold at the highest amount of RNA (e.g., 17.5 ng RNA) compared to DNA alone (FIG. 16A).
The Gal4 mRNA was paired with DNAs comprising DTSs with 1, 2, 3, 4, 5, 7, or 10 repeats of a Gal4 TFBS (e.g., UAS). Twelve hours after transfection, GFP expression was assessed by measuring GFP fluorescence intensity. […] The increase in gene expression appeared to increase with the number of UAS repeats in the DTS up to 5 repeats, while the increase in gene expression appeared saturable as 5, 7, and 10 repeats performed similarly (FIG. 16B). Co-transfection of Gal4 mRNA and DNA comprising a DTS of 5, 7, or 10 repeats produced an increase in GFP expression greater than 10-fold at the highest amount of RNA (e.g., 17.5 ng RNA) compared to DNA alone (e.g., 0 ng RNA) in HepG2 cells (FIG. 16B).

Molecule	gene expression over DNA alone on co-transfection with Gal4 mRNA
DTS with 1 repeat of UAS: DNA with GFP cassette and DTS of 1 UAS (Gal4 TFBS) (DNA ACACTAGAGTCGGAGGACTGTCCTCCGTGAGTCCTAG; DNA nuclear targeting sequence within DNA carrying a GFP cassette, further chemistry not given here)	did not substantially increase gene expression
DTS with 2 repeats of UAS: DNA with GFP cassette and DTS of 2 UAS repeats (DNA CGGAGGACTGTCCTCCGTGAGTCCTAGCGGAGGACTGTCCTCCG; DNA nuclear targeting sequence within DNA carrying a GFP cassette, further chemistry not given here)	did not substantially increase gene expression
B1	did substantially increase gene expression
B2	did substantially increase gene expression
B3	did substantially increase gene expression
B4	did substantially increase gene expression
B5	did substantially increase gene expression

Same assay, conditions: growth-arrested HepG2 cells, 24 h

Molecule	gene expression over DNA alone on co-transfection with TetR mRNA
B6	did not substantially increase gene expression
B7	did substantially increase gene expression
B8	did substantially increase gene expression
B9	did substantially increase gene expression
B10	did substantially increase gene expression
B11	did substantially increase gene expression

Same assay, conditions: highest amount of RNA (17.5 ng RNA), 24 h

Molecule	increase in GFP expression compared to DNA alone on co-transfection with TetR mRNA
B9	greater than 10 fold

Source: US20260234655A1, “Nuclear Targeted DNA Delivery and Compositions for Use in Practicing the Same” (Seawolf Therapeutics, Inc., priority 2022, published 2026)
